Laboratory results published in article PMC10127692, “SARS-CoV-2 SUD2 and Nsp5 Conspire to Boost Apoptosis of Respiratory Epithelial Cells via an Augmented Interaction with the G-Quadruplex of BclII”.

Key:
[1] = target: T1, SUD2core (SUD2-N+M of Nsp3) (SARS-CoV-2, UniProt P0DTC1 1230-1493); assay: BLI; 100 mM K+; details: protein: recombinant; tags: His; label: 5'-biotin (BLI, pulldown); Cy5 (EMSA); G4, folded in 100 mM K+
[2] = target: SUD2core (SUD2-N+M of Nsp3);Nsp5 (SARS-CoV-2;SARS-CoV-2, UniProt P0DTC1;P0DTC1 1230-1493;3264-3569, |); assay: pull-down; 100 mM K+; Nsp5 added; details: protein: recombinant;recombinant; tags: His;GST; label: 5'-biotin (BLI, pulldown); Cy5 (EMSA); G4, folded in 100 mM K+
[3] = target: T1, SUD2core (SUD2-N+M of Nsp3); assay: pull-down; 100 mM K+; positive control; details: protein: recombinant; tags: His; label: 5'-biotin; G4

Row | Binder | Kd [1] [nM] | binding signal [2] | binding result [3]
1 | GGGCGCGGGAGGAATTGGGCGGG (structured_DNA) [Bcl2G4WT (G4 folded)] | 85 | 6.3 fold SUD2core retained vs without Nsp5 | 
2 | TTGAGGGTGGGTAGGGTGGGTAA (structured_DNA) [MYCG4] |  |  | binds
